Target: T1, 重组人IL-10蛋白 (human, UniProt P22301 19-178)
T1 construct: The construct used in the Biacore and ELISA assays is only called recombinant human IL-10 protein; also called 人白介素-10; 重组表达的人白介素-10
Assay: SPR, Biacore 3000; antibody immobilised on CM5 chip, recombinant human IL-10 at 20, 12.3, 4.1, 1.37 and 0.46 nM

T1 sequence (P22301 19-178 limits assumed): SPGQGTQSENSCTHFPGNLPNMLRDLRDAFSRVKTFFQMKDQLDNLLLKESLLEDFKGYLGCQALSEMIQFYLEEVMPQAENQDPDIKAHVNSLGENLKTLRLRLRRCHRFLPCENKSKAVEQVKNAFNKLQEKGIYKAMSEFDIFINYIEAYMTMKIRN

Kd: 9.68 pM
B1: 抗人IL-10兔单克隆抗体B (antibody, V domains shown)
VH: QSLEESGGDLVKPGASLTLTCTASGFSFSGSYGICWVRQAPGKGLEWIACIVTSSGTTYYASWAKGRFTISKTSSTTVTLQMTSLTAADTATYFCARDLLAYYTGNLWGPGTLVTVSS
VL: ALVMTQTPASVEAAVGGTVTINCQASQSISNELSWYQQKPGQRPELLIYGASRLESGVPSRFSGSGSGTEFTLTISDLECDDAATYYCQSAYYSSSVDIYNTFGGGTEVVVKG
notes: Used biotin-labelled as the detection antibody in the sandwich ELISA; also called B抗体; 兔抗人IL-10单克隆抗体B
